According to paper PMC7665024, “Anti-apoptotic BCL-2 regulation by changes in dynamics of its long unstructured loop” (Communications Biology, 2020):

What was measured:
[1] = test system: BCL-2 EEE (T69E/S70E/S87E; EEE-PB); assay: FRET association with Pacific Blue-labeled BCL-2 EEE; conditions: Fig. 1d
[2] = test system: BAX-induced MOMP, isolated mitochondria; assay: In vitro cytochrome c release assay, isolated mitochondria (BCL-2 mutants); assay type: biochemical, mouse; conditions: Bax+BimBH3 = 100, mean of n = 6
Description: To verify this implication, we performed in vitro cytochrome c release assay using isolated mitochondria. […] Lane 3 (Fig. 2a) is a positive control for the cytochrome c release assays. […] (More experimental results in support of the observed BCL-2 activity are given in Supplementary Fig. 3.)
Fig. 2 In vitro assays for evaluating BCL-2 activity. a Cytochrome c release assay with various BCL-2 mutants at varying concentrations. All of the release amounts are normalized to the result caused by the BimBH3-induced BAX activation (lane 3). […] GUVs provide a MOM-like environment devoid of endogenous mitochondrial proteins.
A Dounce homogenizer was used with 20 strokes to homogenize mouse liver tissue (0.2 mg). The mitochondria fraction was separated using centrifugation according to the Mitochondria Isolation Kit (Thermo Scientific). Mitochondria Assay Buffer A (MAB A) (200 mM mannitol, 68 mM sucrose, 10 mM HEPES, 110 mM KCl, 1 mM EDTA, […], 0.1% BSA, protease inhibitor) was used to wash the mitochondria fraction, followed by centrifugation at 12,000 × g. The pellet was collected and resuspended using enough MAB B (i.e., MBA A without 0.1% BSA) and then quantified by bradford assay (Bio-Rad) to yield a final protein content of the mitochondrial fraction ~3 mg/mL. The final mitochondria fraction was placed on ice for further downstream processing or stored at −80 °C with additional 300 mM trehalose for future use[38]. […] The mixture was then incubated with BAX (0.1 μM) and 10 μL of the mitochondrial fraction ([…]) for 0.5 h at 37 °C. Final volume was adjusted to 30 μL. Following centrifugation at 12,000×g for 10 min, the supernatant was subjected to subsequent immunoblotting (IB). Quantification of IB was done using ImageJ software (version 1.49, NIH). The fraction of cytochrome c released (%) is calculated by (I–I0)/(Imax–I0)×100%, where Imax and I0 are the analyzed intensities of cytochrome c with and without activated BAX, respectively.
Samples were resolved by SDS–PAGE (15%) and electroblotted onto a 0.45 μm PVDF membrane (GE Healthcare). Primary antibodies used in this study included rabbit anti-BAX N20 (Santa Cruz Biotechnology), mouse anti-BCL-2(C2) (Santa Cruz Biotechnology) and mouse anti-cytochrome c antibodies (clone 7H8.2C12, Millipore). Detection was achieved using sheep anti-mouse IgG HRP (GE Healthcare) and donkey anti-rabbit IgG HRP (GE Healthcare) secondary antibodies. Proteins were visualized by 4CN Plus Chromogenic Substrate (PerkinElmer).

trypsin = assay: Limited proteolysis by trypsin; conditions: BCL-2 20 μM, trypsin 0.04-9.44 μM, 1 h, room temperature, SDS-PAGE
Method: Fig. 3 Structural differences between WT and EEE. a An illustration of mutation sites prepared for spin-labeling ESR studies. b Distance distributions of various double-spin-labeled BCL-2 (WT or EEE) mutants are determined from the experimental DEER data. […] As highlighted, the displacements of α1 and α2 account for the major differences. d An illustration highlighting the positions of α2–α7 and the binding groove. Structures of WT and EEE are colored as in c. Helices α4–α7 change little between the WT and EEE. The displacement of α2 is critical to the change in the local environment of the binding groove. e Limited proteolysis of BCL-2 (20 μM) analyzed on SDS–PAGE. Trypsin concentrations were 0.04, 0.11, 0.34, 1.03, 3.11, 9.44 μM. Incubation time was 1 h at room temperature. It confirms that tertiary conformations of WT versus EEE are indeed different.
BCL-2 conformational change was assessed by limited proteolysis using trypsin (MERCK). In brief, 5 µg BCL-2 (WT or EEE) was digested at enzyme/substrate ratios ranging from 1:2 to 1:461 for 1 h at room temperature. Proteolysis was quenched by adding 1 mM PMSF, and then samples were confirmed by SDS–PAGE with Coomassie blue staining.

BAX [3] = assay: FRAP-GUV pore-forming activity of BAX, 70-kDa F-dextran; assay type: biochemical, mouse; set-up: FRAP pore-forming activity / FRAP pore-forming activity, average / p (FRAP-70k-p), Average: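 unitless ratio D/D0 relative to diffusion coefficient after Triton X-100 disruption of GUVs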
Method: (§1) Briefly, GUVs were incubated with the proteins of interest over a period of time (Fig. 2c), followed by photobleaching within individual GUVs. A series of fluorescent images were collected over time after the photobleaching and then analyzed to yield the diffusion coefficients of Fluor molecules (including FITC-labeled 70-kDa, and Alexa-647-labeled 10-kDa probes) using the theoretical approach detailed in the “Methods” section. As Fluor molecules are homogeneously dispersed in the solution (outside and inside of GUVs) before the incubation with BAX and activators, it is reasonable to expect that the larger the induced pore area on the surface of a GUV, the greater the diffusion coefficient. Thus, the diffusion coefficient is directly related to the pore-forming activity of activated BAX. As the pore-forming activity is proportional to the concentration of BAX[18], we fixed the total amount of added BAX in all of the measurements below (see the “Methods” section).
(§2) Full-length BAX and variants were prepared as previously described[18],[22],[35]. Mouse BAX was cloned into pTYB1 vector (New England Biolabs, Inc.), resulting pTYB1-BAX construct. The pTYB1-BAX construct encoding a fusion protein of BAX with chitin-binding peptide was separated by a self-cleavable intein tag to obtain a full-length BAX. Wild-type BAX has two native cysteine residues at 62 and 126. Cysteine-free construct (C62S/C126S) was used to prepare single-cysteine BAX variants for conjugating fluorescence probes (e.g., BAX136C in Fig. 1d). Point mutations of recombinant BAX were generated using a QuikChange mutagenesis kit. Proteins were expressed in E. coli (ER2566) strain (New England Biolabs, Inc.) and purified without detergent. Bacterial cultures were grown at 37 °C in LB medium containing 0.1 g/L ampicillin to reach an OD600 of 1.0. BAX expression was induced by addition of 0.3 mM IPTG at 30 °C for 6−8 h. The cells were harvested by centrifugation and resuspended in ice-cold lysis buffer (20 mM Tris–HCl, pH 7.0, 500 mM NaCl and 1 mM PMSF). The resuspended pellet was sonicated on ice for 30 min, followed by centrifugation at 12,800 × g for 50 min. […] The resins were incubated in a pre-equilibrated buffer (20 mM sodium phosphate, pH 8.0, 100 mM NaCl, 60 mM dithiothreitol (DTT)) for 48 h. Proteins were eluted from column and further purified by a SEC using a HiLoad 16/60 Superdex 75 column (GE Healthcare) pre-equilibrated in PB buffer (20 mM sodium phosphate, pH 7.4, 100 mM NaCl). Purified proteins were confirmed by SDS–PAGE with Coomassie blue staining. Protein concentration was determined using absorption spectroscopy at 280 nm.
(§3) All lipids used were purchased from Avanti Polar Lipids. […] Texas Red 1,2-dihexadecanoyl-sn-glycero-3-phosphoethanolamine (TR-DPPE) (Invitrogen) of 0.05% was added to the lipid mixture for virtualization of GUV[18],[26],[27]. GUVs were prepared with the gel-assisted swelling on a polyvinyl alcohol (PVA) gel[39]. A 5% (w/w) solution of PVA (MW 145,000) was prepared by stirring PVA in ddH2O while heating at 90 °C. PVA solution was spread on a microscope coverslip (18 × 18 mm, Matsunami, Japan) and then dried at 50 °C. Lipid mixture (1 mg/mL) dissolved in chloroform were spread on the dry PVA film and placed under vacuum for 30 min to evaporate the solvent. Lipids were rehydrated for 1 h in PB buffer. The resulting GUVs were transferred to an Eppendorf tube using blunt tips.
(§4) FRAP measurements were performed as described previously. […] All reactions were at room temperature and the final volume was 200 μL.

BAX [4] = assay: FRAP-GUV pore-forming activity of BAX, 10-kDa F-dextran; assay type: biochemical, mouse; set-up: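 unitless ratio D/D0 relative to diffusion coefficient after Triton X-100 disruption of GUVs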; conditions: 10 kDa F-dextran
Method: as §1, §2, §3, §4

For “BimBH3-AL488: BimBH3 peptide labeled with Alexa Fluor 488 at C-terminal cysteine (FRET acceptor)”, the “molecular association with EEE compared with S70E or WT (in words)” value [1] was “associated with EEE-PB more potently than with S70E-PB or WT-PB”.

“S70E: less potent phosphomimetic mutant S70E of TM-truncated BCL-2” was tested, and the “Cytochrome c release, Average” value ([2]; BAX+BimBH3 + 2uM BCL-2 protein) was 76.6421, the “Cytochrome c release, Average” value ([2]; BAX+BimBH3 + 4uM BCL-2 protein) was 24.3731 and the “Cytochrome c release, Average” value ([2]; BAX+BimBH3 + 6uM BCL-2 protein) was 15.7119.

For “WT: TM-truncated wild-type human BCL-2 (BCL-2-ΔTM, residues 1–217, C-terminal His6-tag)”, the “susceptibility to trypsin proteolysis (in words)” value (trypsin) was “susceptible to proteolysis and rapidly degraded to fragments”, the “Cytochrome c release, Average” value ([2]; BAX+BimBH3 + 2uM BCL-2 protein) was 77.3682 and the “Cytochrome c release, Average” value ([2]; BAX+BimBH3 + 4uM BCL-2 protein) was 50.0022. The “Cytochrome c release, Average” value ([2]; BAX+BimBH3 + 6uM BCL-2 protein) was 21.4104.

B1: EEE-PB: EEE labeled with Pacific Blue (FRET donor) (conjugate)
chain: MAHAGRTGYDNREIVMKYIHYKLSQRGYEWDAGDVGAAPPGAAPAPGIFSSQPGHTPHPAASRDPVAREEPLQTPAAPGAAAGPALEPVPPVVHLTLRQAGDDFSRRYRRDFAEMSSQLHLTPFTARGRFATVVEELFRDGVNWGRIVAFFEFGGVMCVESVNREMSPLVDNIALWMTEYLNRHLHTWIQDNGGWDAFVELYGPSMRPLFDFSWLSL
modifications: Pacific Blue (maleimide) on the native cysteine 158; left off: His6, C-terminal, state not stated
With B1 the “pore-forming activity / effect on BAX-induced membrane pores on GUV (in words)” value (BAX [3]; 10- and 70-kDa F-dextran, BAX 1 µM, BimBH3 2 µM, BCL-2 1 µM, ABT-199 30 µM, room temperature, Fig. 2c) was “The ability of EEE to sequester BimBH3 is similar to that of EEE-PB”, the “FRAP pore-forming activity, average” value (BAX [3]; 70 kDa F-dextran, mean of trials) was 0.000389 and the FRAP pore-forming activity (BAX [3]; 70 kDa F-dextran, trial1) was 0.00033. It also gave an FRAP pore-forming activity (BAX [3]; 70 kDa F-dextran, trial2) of 0.000165, an FRAP pore-forming activity (BAX [3]; 70 kDa F-dextran, trial3) of 0.000165 and an FRAP pore-forming activity (BAX [3]; 70 kDa F-dextran, trial4) of 0.00033. The FRAP pore-forming activity (BAX [3]; 70 kDa F-dextran, trial5) was 0.00033, the FRAP pore-forming activity (BAX [3]; 70 kDa F-dextran, trial6) was 0.000165 and the FRAP pore-forming activity (BAX [3]; 70 kDa F-dextran, trial7) was 0.00033. It also gave an FRAP pore-forming activity (BAX [3]; 70 kDa F-dextran, trial8) of 0.0006601, an FRAP pore-forming activity (BAX [3]; 70 kDa F-dextran, trial9) of 0.0008251 and an FRAP pore-forming activity (BAX [3]; 70 kDa F-dextran, trial10) of 0.000495. The FRAP pore-forming activity (BAX [3]; 70 kDa F-dextran, trial11) was 0.000495, the FRAP pore-forming activity (BAX [3]; 70 kDa F-dextran, trial12) was 0.00033 and the FRAP pore-forming activity (BAX [3]; 70 kDa F-dextran, trial13) was 0.00033. The FRAP pore-forming activity (BAX [3]; 70 kDa F-dextran, trial14) was 0.000495, the “FRAP pore-forming activity, average” value (BAX [4]; mean of trials) was 0.001441 and the FRAP pore-forming activity (BAX [4]; trial1) was 0.0008772. It also gave an FRAP pore-forming activity (BAX [4]; trial2) of 0.0007018, an FRAP pore-forming activity (BAX [4]; trial3) of 0.0003509 and an FRAP pore-forming activity (BAX [4]; trial4) of 0.0008772. For the same molecule, the FRAP pore-forming activity (BAX [4]; trial5) was 0.001228, the FRAP pore-forming activity (BAX [4]; trial6) was 0.0007018 and the FRAP pore-forming activity (BAX [4]; trial7) was 0.001228. The FRAP pore-forming activity (BAX [4]; trial8) was 0.002456, the FRAP pore-forming activity (BAX [4]; trial9) was 0.002807 and the FRAP pore-forming activity (BAX [4]; trial10) was 0.001579. The FRAP pore-forming activity (BAX [4]; trial11) was 0.002105, the FRAP pore-forming activity (BAX [4]; trial12) was 0.001404 and the FRAP pore-forming activity (BAX [4]; trial13) was 0.001579. It also gave an FRAP pore-forming activity (BAX [4]; trial14) of 0.002281.
